B1: GRG36(ace7): GRG36 protein variant, SEQ ID NO:27, encoded by syngrg36(ace7) (protein)
chain: MKNQNFDAKARSPWTPLKGVNKISVSPSKGRINGTVTIPGSKSLTNRALIISSLASGKSKVQGILKSDDSFWCLDSLKKLGVNVKIQGDIAFIEGNGGKWESGDLYIGAAGTIARFLPGALAVSGTGIWELEASKSMSKRPISPQVDALKELGAEITYLSDQGYYPLLVKGKQLNGGEVELSGRISSQFISGLLIASPYLNDPIKINIKDHIVQHSYVLLTLELMKKFGAKVKYDSSLKEIVVYPSKYTPQDINLEADVSTACYFLALAAVTNGKVQIDNLTYETKQPDIKMVDILERMGCKVTRGSSFIEIEGVSQLKGGFEISMREMSDQVLTLAAIAPFADEPITIKDVEHIRHHESNRISVLVDSLSRLGIIVEEFKDGLKVYPGNPKATLLDTHDDHRVAMALSLIGSRVEGIQINDPGCVSKTCPQYFELLEKLGLNIIKH
modifications: GRG36 variant (GRG36(ace7))
B2: GRG36: wild-type GRG36 EPSP synthase, SEQ ID NO:4 (protein)
chain: MKNQNFDAKARSPWTPLKGVNKISVSPSKGRINGTVTIPGSKSLTNRALIISSLASGKSKVQGILKSDDSFWCLDSLKKLGVNVKIQGDTAFIEGNGGKWESGDLYIGAAGTIARFLPGALAVSGTGIWELEASKSMSKRPISPLVDALKELGAEITYLSDQGYYPLLVKGKQLNGGEVELSGRISSQFISGLLIASPYLNDPIKINIKDHIVQHSYVLLTLELMKKFGAKVKYDSSLKEIVVYPSKYTPQDINLEADVSTACYFLALAAVTNGKVQIDNLTYETKQPDIKMVDILERMGCKVTRGSSFIEIEGVSQLKGGFEISMREMSDQVLTLAAIAPFADEPITIKDVEHIRHHESNRISVLVDSLSRLGIIVEEFKDGLKVYPGNPKATLLDTHDDHRVAMALSLIGSRVEGIQINDPGCVSKTCPQYFELLEKLGLNIIKH
modifications: derived from organism isolated from soil
B3: GRG36(ace8): GRG36 protein variant, SEQ ID NO:28, encoded by syngrg36(ace8) (protein)
chain: MKNQNFDAKARSPWTPLKGVNKISVSPSKGRINGTVTIPGSKSLTNRALIISSLASGKSKVQGILKSDDSFWCLDSLKKLGVNVKIQGDTAFIEGNGGKWESGDLYIGAAGTIARFLPGALAVSGTGIWELEASKSMSKRPISPLVDALKELGAEITYLSDQGYYPLLVKGKQLNGGEVELSGRISSQFISGLLIASPYLNDPIKINIKDHIVQHSYVLLTLELMKKFGAKVKYDSSLKEIVVYPSKYTPQDINLEADVSTACYFLALAAVTNGKVQIDNLTYETKQPDIKMVDILERMGCKVTRGSSFIEIEGVSQLKGGFEISMREMSDQVLTLAAIAPFADEPITITDVEHIRHHESNRISVLVDSLSRLGIIVEEFKDGLKVYPGNPKATLLDTHDDHRVAMALSMIGSRVEGIQINDPGCVSKTCPQYFELLEKLGLNIIKH
modifications: GRG36 variant (GRG36(ace8))
B4: 6b2: GRG31 variant N95→S, A206→V, SEQ ID NO:18 (protein)
chain: MNQQVITLTHPSKKIQGTVQLTGSKSESNRALIIQSLSKGQVEIANLSEAADTVTLNRVLQIASDPKPGFNTIDIGPAGTAMRFLTAYLNLVKGSFILTGTERMQQRPIGILVDAMKEIGADIHYDKKVGYPPLKIEGGLFQEKDRVKIKGNISSQYISALLLIAPALKKGLTLEIEGELTSRPYVSMTLDMLKSVGIQHEWKNNVIKIAPQAFEKQTIYVEPDWSAASYWYAIAALADANASIVLPGLRKNSLQGDIAIISIMEHFGVQSSFESDGLHLNKKVIGSDVSLFNFKECPDLAQTVVVVAAALKRDVSFTGLETLKIKETDRIAALQKEIAKFGAELIEDGDTYHLKTAQVYQPEEVTFDTYEDHRMAMAFAPLALVFDQIKIAEPQVVEKSYPDFWNHLQAQAFVIE
modifications: GRG31 variant (clone 6b2)
B5: 6e7: GRG31 variant E215→K, SEQ ID NO:19 (protein)
chain: MNQQVITLTHPSKKIQGTVQLTGSKSESNRALIIQSLSKGQVEIANLSEAADTVTLNRVLQIASDPKPGFNTIDIGPAGTAMRFLTAYLNLVKGNFILTGTERMQQRPIGILVDAMKEIGADIHYDKKVGYPPLKIEGGLFQEKDRVKIKGNISSQYISALLLIAPALKKGLTLEIEGELTSRPYVSMTLDMLKSVGIQHEWKNNAIKIAPQAFKKQTIYVEPDWSAASYWYAIAALADANASIVLPGLRKNSLQGDIAIISIMEHFGVQSSFESDGLHLNKKVIGSDVSLFNFKECPDLAQTVVVVAAALKRDVSFTGLETLKIKETDRIAALQKEIAKFGAELIEDGDTYHLKTAQVYQPEEVTFDTYEDHRMAMAFAPLALVFDQIKIAEPQVVEKSYPDFWNHLQAQAFVIE
modifications: GRG31 variant (clone 6e7)
B6: Triple EK: GRG31 variant N95S A206V E215K, SEQ ID NO:20 (protein)
chain: MNQQVITLTHPSKKIQGTVQLTGSKSESNRALIIQSLSKGQVEIANLSEAADTVTLNRVLQIASDPKPGFNTIDIGPAGTAMRFLTAYLNLVKGSFILTGTERMQQRPIGILVDAMKEIGADIHYDKKVGYPPLKIEGGLFQEKDRVKIKGNISSQYISALLLIAPALKKGLTLEIEGELTSRPYVSMTLDMLKSVGIQHEWKNNVIKIAPQAFKKQTIYVEPDWSAASYWYAIAALADANASIVLPGLRKNSLQGDIAIISIMEHFGVQSSFESDGLHLNKKVIGSDVSLFNFKECPDLAQTVVVVAAALKRDVSFTGLETLKIKETDRIAALQKEIAKFGAELIEDGDTYHLKTAQVYQPEEVTFDTYEDHRMAMAFAPLALVFDQIKIAEPQVVEKSYPDFWNHLQAQAFVIE
modifications: GRG31 variant (triple EK)

Legend:
GRG36 [1] = details: for fold higher thermostability at 37° C. than wild-type GRG36: relative to wild-type GRG36
Method: Following induction, each GRG36 protein variant was purified by affinity chromatography to a cobalt resin (Novagen). The purified proteins were tested for enzymatic activity following heating for 0, 4 and 6 hours at 37° C.

GRG36 [2] = assay: Kinetic constants of GRG36 enzymes (Km, Ki, Vmax); assay type: biochemical; details: for Km: substrate phosphoenolpyruvate; for Ki: glyphosate, (−)x-intercept of Kobs vs. glyphosate concentration
Method: The syngrg36 DNA library was transformed into E. coli strain BL21*DE3 star (Invitrogen) for induction of protein expression. Following transformation, individual colonies were plated on 1×M63 medium containing 25 mM glyphosate to select for clones that had retained enzymatic activity and growth tolerance. Individual colonies were picked and arrayed into 384-well plates to create a mutagenized library for enzymatic activity screening. Two 384-well plates were created in this manner. Enzymatic activity screening was carried out as follows. Library clones were pinned into 96-well blocks containing LB medium and were grown to A600=0.6. IPTG was then added (0.5 mM) and the blocks were incubated overnight at 20° C. to induce protein expression. Next, protein extracts were prepared from individual cultures using POPCULTURE® reagent (Novagen) and the enzymatic activity was measured as disclosed in U.S. patent application Ser. No. 11/651,752, filed Jan. 10, 2007, herein incorporated by reference in its entirety. […] These 6 were selected for further characterization.
Additionally, enzymatic assays were carried out to calculate the kinetic constants for substrate binding affinity (Km), glyphosate binding (Ki) and enzymatic rate (Vmax). Briefly, each enzyme was titrated with the substrate phosphoenolpyruvate and the linear enzymatic rate was plotted versus the substrate concentration. This plot was fit to the Michaelis-Menton equation to calculate the substrate concentration that produced one-half of the maximal rate (Km), and the maximal rate obtained at saturating substrate was divided by the enzyme concentration to yield Vmax. Next, additional substrate titrations were carried out at various glyphosate concentrations, and the apparent binding constant at each glyphosate concentration (Kobs) was plotted against the glyphosate concentration to yield a straight line. The Ki was measured as (−)x-intercept.

GRG31 EPSP synthase [3] = assay: Kinetic analysis of GRG31 variants (Ki for glyphosate, Km for PEP, Vmax); assay type: biochemical; set-up: Vmax: unit not given here; details: for Ki: Ki for glyphosate, calculated from plot of Km(app) vs. glyphosate concentration; for Km: Km for PEP; for Vmax: unit not given
Method: GRG31 variants L3P2b11, L3P2c11 and L4e11, and L5e3 were characterized by enzymatic assays as described herein, and compared to the native GRG31 enzyme. For each enzyme the apparent Km (Km(app)) was determined at each of several glyphosate concentrations, and a plot of Km(app) vs. glyphosate concentration was used to calculate the Ki for each enzyme. The thermostability for each enzyme was assessed by incubating the enzyme at 37° C. for 16 hours, and then quantifying the enzymatic activity remaining (as Vmax) vs. control enzyme that was incubated at 4° C.

GRG31 EPSP synthase [4] = assay: Thermostability of extracts of GRG31 point mutants at 37° C.; assay type: biochemical; details: for thermostability of extracts of error prone PCR clones: extracts of 95 clones, in words
Method: To improve the thermostability of GRG31, error prone PCR mutagenesis of GRG31 was performed. Forty-five thousand (45,000) clones were plated onto 50 mM glyphosate, and ninety-five (95) clones were picked.
To further investigate the contributions of various substitutions in these positions, several point mutations were generated at positions corresponding to amino acid positions 95, 206, and 215 of GRG31. Extracts of point mutants were tested for thermostability at 37° C.: […]

GRG31 EPSP synthase [5] = assay: Thermostability of purified GRG31 variant proteins (4 hrs at 37° C.); assay type: biochemical; details: in words
Method: GRG31 variants L3P2b11, L3P2c11 and L4e11, and L5e3 were characterized by enzymatic assays as described herein, and compared to the native GRG31 enzyme. For each enzyme the apparent Km (Km(app)) was determined at each of several glyphosate concentrations, and a plot of Km(app) vs. glyphosate concentration was used to calculate the Ki for each enzyme. […]
Three variants (6b2, 6e7, and the triple EK (N95S A206V E215K; SEQ ID NO:20)) were grown, their proteins purified, and the thermostability of the proteins analyzed in more detail.

[6] = extracts of point mutants, Table 8
[7] = extracts, separate experiment, Table 9

Molecule	Half-life at 37° C. (GRG36 [1])	fold higher thermostability at 37° C. than wild-type GRG36 (GRG36 [1])	Vmax (GRG36 [2])	activity at 1 mM glyphosate compared with GRG36 (GRG36 [2]; 1 mM glyphosate)	Km (GRG36 [2])	Ki (GRG36 [2])	Ki (GRG31 EPSP synthase [3])	Km (GRG31 EPSP synthase [3])	improvement in Km for PEP relative to GRG31 (GRG31 EPSP synthase [3]; relative to GRG31, in words)	Vmax (GRG31 EPSP synthase [3])	thermostability of extracts of error prone PCR clones (GRG31 EPSP synthase [4])	Percent of Wt GRG31 activity (4 hrs at 37° C.) (GRG31 EPSP synthase [4]; [6])	Percent of Wt GRG31 activity (4 hrs at 37° C.) (GRG31 EPSP synthase [4]; [7])	thermostability compared to wild-type GRG31 (GRG31 EPSP synthase [5])	Vmax improvement over GRG31 (GRG31 EPSP synthase [3]; relative to GRG31)	Vmax relative to GRG31 (GRG31 EPSP synthase [3]; relative to GRG31, in words)
B1	18.8 h	7.5 fold	1.8 nmol/min/µg	very similar activity	9.8 µM	–	–	–	–	–	–	–	–	–	–	–
B2	2.5 h	–	8 nmol/min/µg	–	6.3 µM	421 µM	–	–	–	–	–	–	–	–	–	–
B3	7.3 h	2.5 fold	6.8 nmol/min/µg	–	11 µM	435 µM	–	–	–	–	–	–	–	–	–	–
B4	–	–	–	–	–	–	92 µM	6.5 µM	improved (lower)	34	increased thermostability	228%	139%	increased thermostability	–	–
B5	–	–	–	–	–	–	111 µM	3.4 µM	improved (lower)	62	increased thermostability	213%	152%	increased thermostability	2 fold	improved
B6	–	–	–	–	–	–	48.2 µM	7.2 µM	improved (lower)	33	–	–	–	increased thermostability	–	–

Source: patent publication US8247535B2, “Directed evolution of GRG31 EPSP synthase enzyme” (Athenix Corp., priority 2008, dated 2012)
